In PMC9427789:

target: His-SUMO-FGF23 (N-terminal domain of human FGF23, wild type) (human) (UniProt Q9GZV9); assay: ELISA
Sequence (Q9GZV9 25-204): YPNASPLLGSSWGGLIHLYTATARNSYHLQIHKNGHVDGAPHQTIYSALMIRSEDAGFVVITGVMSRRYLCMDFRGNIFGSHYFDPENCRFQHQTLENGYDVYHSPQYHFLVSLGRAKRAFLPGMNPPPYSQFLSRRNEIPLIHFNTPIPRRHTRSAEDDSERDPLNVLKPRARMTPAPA

Row | Substance | Kd [nM]
1 | Burosumab VL:T69D | 0.86
2 | Burosumab VL:S67Y | 0.73
3 | Burosumab VL:S52D | 0.7
